Reference: US20100204100A1, “BIOLOGICAL AGENTS ACTIVE IN CENTRAL NERVOUS SYSTEM” (THE JOHNS HOPKINS UNIVERISTY, priority 2007, published 2010)
“Also recorded” adds a separate entry of the source.

B1: PSD-95 PDZ2: Control peptide containing the same sequences as Tat-PSD-95 PDZ2 but without Tat PTD (protein)
chain: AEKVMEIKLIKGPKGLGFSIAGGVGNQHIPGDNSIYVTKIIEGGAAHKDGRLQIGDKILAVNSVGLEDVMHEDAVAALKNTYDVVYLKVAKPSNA
B2: Tat-PSD-95 PDZ2: His-tagged fusion peptide: HIV Tat minimal transduction domain (residues 47-57) fused to the second PDZ domain of PSD-95 (protein)
chain: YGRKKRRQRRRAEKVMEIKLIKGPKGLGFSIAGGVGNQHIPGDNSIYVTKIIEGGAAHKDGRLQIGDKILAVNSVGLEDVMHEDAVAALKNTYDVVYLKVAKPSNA
B3: mutated Tat-PSD-95 PDZ2: Control fusion peptide: Tat-PSD-95 PDZ2 with three sites critical for NMDAR/PSD-95 interaction mutated (K165T, L170R and H182L) (protein)
chain: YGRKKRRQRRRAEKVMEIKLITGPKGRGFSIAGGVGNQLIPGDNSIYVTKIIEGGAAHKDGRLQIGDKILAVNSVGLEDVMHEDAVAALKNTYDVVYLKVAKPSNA

How the values were obtained:
[1] = In vivo CNS / spinal cord distribution of Tat fusion peptides after intraperitoneal injection (Western blot, immunohistochemistry); set-up: species or system mouse; details: mice; for delivery into lumbar spinal cord, Western blot: 4 h after intraperitoneal injection; for distribution in the spinal cord, immunohistochemical staining: after intraperitoneal injection; for delivery into cerebral cortex, hippocampus and lumbar spinal cord, Western blotting: 4 h after intraperitoneal injection (data not shown); for dose dependence of delivery into the spinal cord, Western blot: intraperitoneal 2, 4, 8 mg/kg
Experimental: In Vivo Systemic Administration and Spinal Cord Distribution of Tat Fusion Peptides. Western blot analysis and immunohistochemistry were used to detect the spinal cord distribution of Tat fusion peptides after systemic administration. The purified fusion peptides at the indicated amounts were injected into mice intraperitoneally in 300 μl of PBS and 10% glycerol, as previously described (Cao, et al., 2002). The mice, assigned randomly to the experimental groups of 6-8, were given Tat-PSD-95 PDZ2 or control peptide (mutated Tat-PSD-95 PDZ2 or PSD-95 PDZ2 without Tat PTD) 4 h before sample collection. For Western blotting, lumbar spinal cord tissues were harvested, homogenized according to standard procedures, and centrifuged at 700×g for 15 min at 4° C. The extracted proteins were resolved by SDS-PAGE, electro-transferred to nitrocellulose membranes, and then immunoblotted with above-mentioned monoclonal anti-His antibody. For immunohistochemistry, sections from the spinal lumbar enlargement segments were fixed in 4% paraformaldehyde (in 0.1 M phosphate buffer, pH 7.4) for 10 min, and then incubated with the monoclonal anti-His antibody. Thereafter, the sections were rinsed with 0.01 M PBS, incubated with fluorescein isothiocyanate-conjugated anti-mouse IgG (1:80; Jackson ImmunoResearch Laboratories) for 1 h at 37° C., and rinsed again with PBS. The sections were imaged with confocal laser scanning microscopy at an excitation wavelength of 488 nm for fluorescein isothiocyanate.
The purified fusion peptides at the indicated amounts were injected intraperitoneally into mice in 300 μl of phosphate-buffered saline and 10% glycerol. The mice were given Tat-PSD-95 PDZ2 or control peptide (mutated Tat-PSD-95 PDZ2 or PSD-95 PDZ2 without Tat) 4 h before MAC measurement and righting reflex testing. All the animals were assigned randomly to experimental groups consisting of 6-8 animals each. Western blot analysis was then used to verify the CNS delivery of these fusion peptides after intraperitoneal injection.
Cerebral cortex, hippocampus, and lumbar spinal cord were harvested 4 h after intraperitoneal injection of the fusion peptides. Total proteins from these tissues were extracted. In brief, the tissues were removed and homogenized in homogenization buffer^18 (10 mM Tris-HCl, 5 mM MgCl2, 2 mM EGTA, 1 mM phenylmethylsulfonyl fluoride, […] leupeptin, 2 μM pepstatin A, and 320 mM sucrose, pH 7.4). The crude homogenates were centrifuged at 700×g for […] at 4° C. The pellets were rehomogenized and spun again at 700×g, and the supernatants were combined and diluted in resuspension buffer^18 (10 mM Tris-HCl, 5 mM MgCl2, 2 mM EGTA, 1 mM phenylmethylsulfonyl fluoride, 1 μM leupeptin, 2 μM pepstatin A, and 250 mM sucrose, pH 7.4). Next, the protein extracts were resolved by sodium dodecyl sulfate-polyacrylamide gel electrophoresis, electrotransferred to nitrocellulose membranes, and then immunoblotted with monoclonal anti-His antibody (Sigma, St. Louis, Mo.) diluted (1:1,000) in blocking solution containing 3% nonfat dry milk and 0.1% Tween-20 in Tris-HCl-buffered saline for 1 h at room temperature. After extensive washing, the membranes were incubated with horseradish peroxidase-conjugated anti-mouse immunoglobulin (Bio-Rad Laboratories, Hercules, Calif.) at a dilution of 1:3,000 for another 1 h. Specific proteins were detected by enhanced chemiluminescence (Amersham, Piscataway, N.J.). Tubulin served as a loading control and cerebral cortex was used for its detection.

[2] = tested on: interaction between NR2A/2B and PSD-95; experiment: In vivo binding assay (co-immunoprecipitation) from spinal cord homogenates of treated mice; set-up: species or system mouse; details: 8 mg/kg intraperitoneal
Experimental: In Vitro and In Vivo Binding Assays. […] Membrane-bound proteins from the spinal lumbar enlargement segments were extracted as described previously (Tao, et al., 2003a). For in vitro binding experiments (GST pull-down), the solubilized membrane fraction and GST fusion peptide were first preincubated with different concentrations of Tat-PSD-95 PDZ2 at room temperature for 30 min. Then the membrane fraction was mixed with the GST fusion peptide at room temperature for 1 h. The resin was washed five times with washing buffer (PBS plus 500 mM NaCl and 0.1% Triton X-100) and then boiled in 1×SDS-PAGE sample buffer to elute the bound proteins. After being separated by electrophoresis, the proteins were detected by immunoblotting with anti-GST antibody (Santa Cruz Biotechnology, Santa Cruz, Calif.) and anti-NR2B antibody (Upstate Biotechnology, Lake Placid, N.Y.). For in vivo binding experiments (co-immunoprecipitation), 5 μg of the affinity-purified rabbit NR2A/2B antibody (Chemicon, Temecula, Calif.) was incubated with 100 μl of protein A-Sepharose slurry for 1 h, and the complex was spun down at 2000 rpm for 4 min. The solubilized membrane fraction (500 μg) from the different groups of treated mice as mentioned-above then was added to the Sepharose beads, and the mixture was incubated for 2-3 h at 4° C. The mixture was washed once with 1% Triton X-100 in immunoprecipitation buffer [containing (in mM): 137 sodium chloride, 2.7 potassium chloride, 4.3 disodium hydrogen phosphate, 1.4 potassium dihydrogen phosphate, 5 ethylene glycol tetraacetic acid, 1 sodium vanadate, 10 sodium pyrophosphate, 50 sodium fluoride, 0.1 phenylmethylsulfonyl fluoride, and 20 U/ml Trasylol], twice with 1% Triton X-100 in immunoprecipitation buffer plus 300 mM sodium chloride, and three times with immunoprecipitation buffer. The proteins were separated by SDS-PAGE and detected by NR2A/2B or PSD-95 antibody (Upstate Biotechnology, Lake Placid, N.Y.). As a positive control (input), 50 μg of the solubilized membrane fraction was loaded onto the gel. […]

[3] = target: T1, interactions between NMDA receptor NR2B and PSD-95 protein (Mus musculus, UniProt Q01097); experiment: In vitro binding assay (GST pull-down) with GST-PSD-95 PDZ1,2 and spinal membrane fraction; details: for effect on interactions between GST-PSD-95 PDZ1,2 and NR2B (amount of NR2B pulled down): preincubation with different doses of peptide, 30 min; for effect on interactions between NMDAR NR2 subunits and PSD-95: summary of GST pull-down and co-immunoprecipitation (FIG. 2)
T1 construct: from tissue; host or cells: NR2B: solubilized membrane fraction of mouse spinal lumbar enlargement
T1 sequence (Q01097 27-1482, other chains not shown): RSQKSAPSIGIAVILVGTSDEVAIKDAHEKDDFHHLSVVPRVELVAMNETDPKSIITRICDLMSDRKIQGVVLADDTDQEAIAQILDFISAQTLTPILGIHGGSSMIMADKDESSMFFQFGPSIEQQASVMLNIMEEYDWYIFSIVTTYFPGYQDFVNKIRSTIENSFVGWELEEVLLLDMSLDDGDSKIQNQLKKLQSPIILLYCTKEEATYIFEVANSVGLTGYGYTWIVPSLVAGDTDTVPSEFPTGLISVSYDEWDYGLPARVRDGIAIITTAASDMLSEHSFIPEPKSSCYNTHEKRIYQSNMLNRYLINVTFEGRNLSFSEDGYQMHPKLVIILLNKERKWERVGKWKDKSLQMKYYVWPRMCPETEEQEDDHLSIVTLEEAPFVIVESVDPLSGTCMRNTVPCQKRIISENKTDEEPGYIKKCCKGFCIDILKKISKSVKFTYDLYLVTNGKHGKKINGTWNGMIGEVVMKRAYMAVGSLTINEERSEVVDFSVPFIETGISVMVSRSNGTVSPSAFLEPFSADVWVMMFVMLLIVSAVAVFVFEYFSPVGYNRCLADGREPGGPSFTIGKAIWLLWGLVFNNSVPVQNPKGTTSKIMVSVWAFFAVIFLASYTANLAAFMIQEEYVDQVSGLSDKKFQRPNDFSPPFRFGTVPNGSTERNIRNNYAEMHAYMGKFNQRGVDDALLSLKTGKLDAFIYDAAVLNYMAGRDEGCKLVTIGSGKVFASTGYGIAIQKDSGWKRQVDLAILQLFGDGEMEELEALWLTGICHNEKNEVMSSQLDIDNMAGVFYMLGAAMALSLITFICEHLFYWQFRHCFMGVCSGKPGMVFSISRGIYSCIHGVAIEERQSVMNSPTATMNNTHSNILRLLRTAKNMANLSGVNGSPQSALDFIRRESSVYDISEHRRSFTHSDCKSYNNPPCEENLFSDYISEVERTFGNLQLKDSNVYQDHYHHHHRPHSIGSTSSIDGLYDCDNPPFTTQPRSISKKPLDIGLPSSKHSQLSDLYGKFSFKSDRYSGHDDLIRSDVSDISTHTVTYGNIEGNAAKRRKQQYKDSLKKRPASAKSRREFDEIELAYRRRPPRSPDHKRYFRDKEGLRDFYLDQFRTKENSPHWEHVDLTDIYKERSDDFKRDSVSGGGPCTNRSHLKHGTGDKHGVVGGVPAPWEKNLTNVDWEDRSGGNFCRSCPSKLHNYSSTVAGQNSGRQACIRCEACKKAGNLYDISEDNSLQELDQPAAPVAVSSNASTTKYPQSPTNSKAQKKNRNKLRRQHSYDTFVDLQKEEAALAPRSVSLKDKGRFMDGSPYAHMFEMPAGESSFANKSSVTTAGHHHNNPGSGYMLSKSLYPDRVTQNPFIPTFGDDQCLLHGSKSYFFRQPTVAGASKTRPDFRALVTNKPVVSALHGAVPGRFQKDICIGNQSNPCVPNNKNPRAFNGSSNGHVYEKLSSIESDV
Experimental: In Vitro and In Vivo Binding Assays. […] Membrane-bound proteins from the spinal lumbar enlargement segments were extracted as described previously (Tao, et al., 2003a). For in vitro binding experiments (GST pull-down), the solubilized membrane fraction and GST fusion peptide were first preincubated with different concentrations of Tat-PSD-95 PDZ2 at room temperature for 30 min. Then the membrane fraction was mixed with the GST fusion peptide at room temperature for 1 h. The resin was washed five times with washing buffer (PBS plus 500 mM NaCl and 0.1% Triton X-100) and then boiled in 1×SDS-PAGE sample buffer to elute the bound proteins. After being separated by electrophoresis, the proteins were detected by immunoblotting with anti-GST antibody (Santa Cruz Biotechnology, Santa Cruz, Calif.) and anti-NR2B antibody (Upstate Biotechnology, Lake Placid, N.Y.). For in vivo binding experiments (co-immunoprecipitation), 5 μg of the affinity-purified rabbit NR2A/2B antibody (Chemicon, Temecula, Calif.) was incubated with 100 μl of protein A-Sepharose slurry for 1 h, and the complex was spun down at 2000 rpm for 4 min. The solubilized membrane fraction (500 μg) from the different groups of treated mice as mentioned-above then was added to the Sepharose beads, and the mixture was incubated for 2-3 h at 4° C. The mixture was washed once with 1% Triton X-100 in immunoprecipitation buffer [containing (in mM): 137 sodium chloride, 2.7 potassium chloride, 4.3 disodium hydrogen phosphate, 1.4 potassium dihydrogen phosphate, 5 ethylene glycol tetraacetic acid, 1 sodium vanadate, 10 sodium pyrophosphate, 50 sodium fluoride, 0.1 phenylmethylsulfonyl fluoride, and 20 U/ml Trasylol], twice with 1% Triton X-100 in immunoprecipitation buffer plus 300 mM sodium chloride, and three times with immunoprecipitation buffer. The proteins were separated by SDS-PAGE and detected by NR2A/2B or PSD-95 antibody (Upstate Biotechnology, Lake Placid, N.Y.). As a positive control (input), 50 μg of the solubilized membrane fraction was loaded onto the gel.

Molecule | delivery into lumbar spinal cord, Western blot ([1]; listed as PSD-95 PDZ2 without Tat) | distribution in the spinal cord, immunohistochemical staining [1] | effect on interaction between NR2A/2B and PSD-95, co-immunoprecipitation [2] | delivery into lumbar spinal cord, Western blot [1] | delivery into cerebral cortex, hippocampus and lumbar spinal cord, Western blotting [1] | dose dependence of delivery into the spinal cord, Western blot [1] | dose dependence of delivery into the spinal cord, Western blot ([1]; listed as Tat-P SD-95 PDZ2) | effect on NR2B being pulled down at high dose ([3]; 16 μg peptide) | effect on interactions between GST-PSD-95 PDZ1,2 and NR2B (amount of NR2B pulled down) [3] | effect on interactions between NMDAR NR2 subunits and PSD-95 [3] | difference in PTD-mediated spinal delivery versus Tat-PSD-95 PDZ2 ([1]; intraperitoneal injection, Western blot)
B1 | not detected | not detected | neither mutated Tat-PSD-95 PDZ2 (8 mg/kg) nor PSD-95 PDZ2 (8 mg/kg) had an effect |  |  |  |  |  |  |  | 
B2 |  | distributed in the spinal cord | markedly disrupted; also recorded: markedly blocked | delivered into lumbar spinal cord | delivered into cerebral cortex, hippocampus and lumbar spinal cord | dose-dependently delivered; also recorded: dose-dependent | dose-dependent | completely prevented | dose-dependently inhibited; also recorded: dose-dependently reduced | markedly disrupted | 
B3 |  |  | no effect; also recorded: neither mutated Tat-PSD-95 PDZ2 (8 mg/kg) nor PSD-95 PDZ2 (8 mg/kg) had an effect | delivered into lumbar spinal cord | delivered into cerebral cortex, hippocampus and lumbar spinal cord |  |  |  | no effect | no effect | No significant difference
